From PMC6019379, “RecA-like domain 2 of DNA-dependent ATPase A domain, a SWI2/SNF2 protein, mediates conformational integrity and ATP hydrolysis” (Bioscience Reports, 2018)

Key:
Test in all cases: intrinsic tryptophan fluorescence titration; no ATP; Fluorescence titration (ex 295 nm, em 340 nm), one-site saturation fit; buffer, salt, pH and temperature not given in the material. Wild-type ADAAD Kd values are cited from ref 24 and not listed
Settings in all cases: protein: recombinant; tags: His (Ni-NTA, pET-14b); hairpin
ADAAD S558A = target: T1, ADAAD S558A (Bos taurus (bovine), UniProt Q9TTA5 221-940, S778A)
T1 sequence: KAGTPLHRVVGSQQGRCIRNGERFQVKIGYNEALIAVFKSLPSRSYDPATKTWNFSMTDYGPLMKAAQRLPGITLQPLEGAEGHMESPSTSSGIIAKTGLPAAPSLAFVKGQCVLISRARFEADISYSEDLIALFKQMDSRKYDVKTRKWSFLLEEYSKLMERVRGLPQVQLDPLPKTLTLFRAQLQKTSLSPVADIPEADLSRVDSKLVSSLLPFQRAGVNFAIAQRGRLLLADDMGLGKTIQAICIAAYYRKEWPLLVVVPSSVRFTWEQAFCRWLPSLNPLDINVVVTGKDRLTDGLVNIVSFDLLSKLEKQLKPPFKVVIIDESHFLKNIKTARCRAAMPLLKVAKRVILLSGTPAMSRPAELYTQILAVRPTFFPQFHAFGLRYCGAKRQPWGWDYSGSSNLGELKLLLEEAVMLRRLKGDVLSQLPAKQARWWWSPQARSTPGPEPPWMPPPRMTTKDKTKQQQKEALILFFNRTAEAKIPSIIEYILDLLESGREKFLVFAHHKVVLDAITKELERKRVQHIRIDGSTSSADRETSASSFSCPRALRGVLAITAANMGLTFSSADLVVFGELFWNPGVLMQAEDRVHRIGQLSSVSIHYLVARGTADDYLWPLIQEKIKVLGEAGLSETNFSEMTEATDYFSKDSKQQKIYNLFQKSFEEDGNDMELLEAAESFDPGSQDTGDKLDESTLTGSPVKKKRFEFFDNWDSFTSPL

ADAAD R595K = target: T2, ADAAD R595K (Bos taurus (bovine), UniProt Q9TTA5 221-940, R815K)
T2 sequence: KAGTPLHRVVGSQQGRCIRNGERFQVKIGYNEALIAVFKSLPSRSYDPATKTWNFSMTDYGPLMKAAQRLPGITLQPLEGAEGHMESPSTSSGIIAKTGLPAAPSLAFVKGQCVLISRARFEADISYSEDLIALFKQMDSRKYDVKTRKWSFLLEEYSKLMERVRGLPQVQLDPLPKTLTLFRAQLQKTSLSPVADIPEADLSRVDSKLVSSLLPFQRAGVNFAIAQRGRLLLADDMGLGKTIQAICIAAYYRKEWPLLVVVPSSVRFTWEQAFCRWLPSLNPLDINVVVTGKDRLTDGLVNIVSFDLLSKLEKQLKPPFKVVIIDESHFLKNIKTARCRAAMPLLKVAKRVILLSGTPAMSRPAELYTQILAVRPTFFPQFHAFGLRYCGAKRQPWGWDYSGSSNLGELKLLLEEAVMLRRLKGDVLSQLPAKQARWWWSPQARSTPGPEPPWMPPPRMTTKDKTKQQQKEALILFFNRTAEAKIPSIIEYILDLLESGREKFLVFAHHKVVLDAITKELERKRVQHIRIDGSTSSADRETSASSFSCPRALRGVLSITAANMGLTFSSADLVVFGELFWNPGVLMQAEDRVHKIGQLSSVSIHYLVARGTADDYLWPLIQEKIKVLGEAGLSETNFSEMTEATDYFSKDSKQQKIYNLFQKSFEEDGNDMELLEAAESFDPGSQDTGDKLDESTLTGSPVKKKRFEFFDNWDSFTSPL

ADAAD D591H = target: T3, ADAAD D591H (Bos taurus (bovine), UniProt Q9TTA5 221-940, D811H)
T3 sequence: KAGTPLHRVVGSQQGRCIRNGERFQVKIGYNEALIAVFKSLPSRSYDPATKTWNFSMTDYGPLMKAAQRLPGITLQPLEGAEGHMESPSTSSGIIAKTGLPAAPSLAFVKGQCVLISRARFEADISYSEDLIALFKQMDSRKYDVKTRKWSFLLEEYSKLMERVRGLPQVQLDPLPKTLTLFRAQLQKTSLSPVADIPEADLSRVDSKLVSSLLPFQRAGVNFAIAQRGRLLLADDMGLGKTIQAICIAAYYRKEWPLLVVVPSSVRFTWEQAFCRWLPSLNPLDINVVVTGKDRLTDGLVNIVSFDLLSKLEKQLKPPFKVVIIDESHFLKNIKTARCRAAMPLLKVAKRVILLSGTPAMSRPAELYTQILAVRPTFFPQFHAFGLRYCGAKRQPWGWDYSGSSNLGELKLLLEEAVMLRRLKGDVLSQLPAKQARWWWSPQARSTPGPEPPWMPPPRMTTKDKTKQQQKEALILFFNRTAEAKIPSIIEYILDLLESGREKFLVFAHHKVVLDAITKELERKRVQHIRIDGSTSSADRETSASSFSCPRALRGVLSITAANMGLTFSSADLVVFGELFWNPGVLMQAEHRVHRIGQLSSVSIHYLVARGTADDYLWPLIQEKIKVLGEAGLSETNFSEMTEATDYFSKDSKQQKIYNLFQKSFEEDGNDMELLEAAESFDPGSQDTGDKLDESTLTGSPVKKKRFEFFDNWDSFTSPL

## GCGCAATTGCGCTCGACGATTTTTTAGCGCAATTGCGC (structured_DNA) [slDNA (stem-loop DNA)]
ADAAD S558A
  Kd: 11 ± 2.7 nM
ADAAD R595K
  Kd: 25.1 ± 7.4 nM
ADAAD D591H
  Kd: 21.3 ± 7 nM
